Data from publication PMC5787837.

Key:
[1] = biological target: HFBI–Protein A fusion protein (Trichoderma reesei | Staphylococcus aureus); assay: QCM-D (quartz crystal microbalanc); conditions: scale: moles of rituximab per mole of immobilized HFBI–Protein A
[2] = biological target: HFBII–Protein A fusion protein (Trichoderma reesei | Staphylococcus aureus); assay: QCM-D (quartz crystal microbalanc); conditions: scale: moles of rituximab per mole of immobilized HFBII–Protein A
[3] = biological target: commercial Protein A (Sigma-Aldrich) (Staphylococcus aureus) (UniProt P38507); assay: QCM-D (quartz crystal microbalance with dissipation monitoring)

rituximab (antibody)
stoichiometry N [1]: 1.5 | stoichiometry N [2]: 1.2 | stoichiometry N [3]: 1.2
